Reference: EP4350345A2
Numbering of substitutions follows the chain as printed. Numbers in names are those of the source.

Columns and labels:
[1] = biological target: antibodies against ISV in serum sample IHUS#B09032311A3; assay: ECL bridging assay, drug displacement; competitor of labelled ISV SEQ ID NO:1
[2] = biological target: antibodies against ISV in serum sample IHUS#B09032311A20; assay: as above
[3] = biological target: serum sample IHUS#B09032311A1; assay: as above
[4] = biological target: affinity purified antibody IHuP#002-001-ABL-08; assay: ECL bridging/competition assay, 10 ug/ml ISV with 400 ng/ml analytical antibody; competitor of labelled ISV

B1: Example 1C: (A14P,R39Q,K83R,T91Y,Q108L) (VHH)
VHH: EVQLVESGGGLVQPGGSLRLSCAASGRTFNNYAMGWFRQAPGKEREFVAAITRSGVRSGVSAIYGDSVKDRFTISRDNAKNTLYLQMNSLRPEDTAVYYCAASAIGSGALRRFEYDYSGQGTLVTVSS
% reduction [1]: 90%
ECLU confirmatory assay [1]: 228 ECLU
% reduction [2]: 97%
ECLU confirmatory assay [2]: 570 ECLU
% reduction [3]: 6%
ECLU confirmatory assay [3]: 58 ECLU
% reduction [4]: 91.4%
ECLU confirmatory assay [4]: 251 ECLU

B2: Example 1C: (A14P,K83R,Q108L) (VHH)
VHH: B1 VHH with Q39R, Y99T
% reduction [1]: 93%
ECLU confirmatory assay [1]: 156 ECLU
% reduction [2]: 97%
ECLU confirmatory assay [2]: 628 ECLU
% reduction [3]: 8%
ECLU confirmatory assay [3]: 57 ECLU
% reduction [4]: 89.1%
ECLU confirmatory assay [4]: 319 ECLU
